Source: the supplement of paper PMC9170038

tested on: MS2 coat protein; assay: apparent KD of MS2 coat protein; higher = weaker reporter binding; settings: Eterna round: R107; input ligand: theophylline 20 uM
In short: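 Apparent KD is reported per design as the median of normalised binding-curve fits across its clusters. The RNA switches were made by on-chip transcription from Illumina sequencing clusters. SNAP-549-labelled MS2 coat protein was then added in twofold steps (0.7 or 1.5 nM to 3 µM; 0.8–1.5 h to 10–20 min per step) in 100 mM Tris-HCl pH 7.5, 80 mM KCl, 4 mM MgCl2, without or with constant ligand.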

In order of rising “apparent KD of MS2 coat protein” value:
1. CUCCCGUGGUCGGCCGCCACUGGAGGCCUCGCGCGACAUGAGGAUCACCCAUGUUGGCCCGGCUUCAGGACCGGGAUCGCGUGAG [#1 Same State - Tryptophan B Attempt #8 (HarryS)]  16.2 nM
2. AGCUCAUAGAGUGAUACCAGACUACAUGAGGAUCACCCAUGUUACUUUUAAAUAUCAUUUGUCCCUUGGCAGCACAUGAAGAGCA [JR_Nu_ExcTheophyB_Sub017]  18.5 nM
3. UGGAAAGCACAUGAGGAUCACCCAUGUGAUACCAGCUGAAACUAAGGCCCUUGGCAGCACAUGGUACCAACCCUUUGGUAGUCCA [Vearedqu]  19.9 nM
4. AUGACUCACAAAGAAGAUAAAAUGGGUGAACGAGGACCGGUACGGCCGCCACUCGGACAUGAGGAUCACCCAUGUCCAUGUGCAA [#24 Exclusion Tryptophan A]  24.3 nM
5. CGAAUAUAGACGGCCGCCACUCUACAAACAUGAGGAUCACCCAUGUUCACAUAGUGGAAACACAUGAGGACCGGGUCAUAGGCAU [#18 Same State - Tryptophan B]  25.4 nM
6. CUAUAUAUAUCGGCCGCCACUUACUCAUGAGGUAACAACAUGAGGAUCACCCAUGUUUGAGGAUCAAGGACCGGGAUAUAUAUAG [AstrosSSTryB#15]  33.4 nM
7. CUAUAUUUAUCGGCCGCCACUUACUCAUGAGGUAACAACAUGAGGAUCACCCAUGUUUGAGGAUCAAGGACCGGGAUAAAUAUAG [AstrosSSTryB#17]  34.2 nM
8. AGCAACAAGUCGGCCGCCACUCUUUUAACAUGAGGAUCACCCAUGUUUAUAUCAUGGUUUUAAUAGAGGACCGGGACAGUUGCAU [JR_ExcTryptoB_Sub005]  37 nM
9. AACGUAUACAGAAGGAGCGUGAUUUAUUAUUCUUUAAGAUAUACAUGAGGAUCACCCAUGUCACAGGUAGGUCGCUGUAUUCGUA [JR_ExcArginiB_Sub025]  42.3 nM
10. GGUUCAUCGUCGGCCGCCACUCACAUGAGGUGGAGCUGUAAACAUGAGGAUCACCCAUGUUGUUAGAGGACCGGGACGUGACGGC [theeternabot_exclusion_MS2_Trp_B_6]  43.4 nM
11. CCGUUUUAUGGCGACAUAGGGCGGACUGAAGGAGCGGUAUAAAAGCCAGGUAGGUCGCAGAGAUCCACAUGAGGAUCACCCAUGU [!0.aA]  45.8 nM
12. AUCUUUGGCGAUCUGGGAAAACCAGAUCGACGAGGACCGGUACGGCCGCCACUCGUGUAUAAUAUACAUGAGGAUCACCCAUGUA [#18 Tryptophan A Same State]  61.1 nM
13. CGUAUUGUAACUGAUACCAGUGUACUGACAUGAGGAUCACCCAUGUUGGGUUUUGUUGUACACCCUUGGCAGCAGAAUCAAUACG [AstrosExyTheB#5]  74.2 nM
14. GCGAUGGAGCGAAGGAGCGUGCUGGUACAUGAGGAUCACCCAUGUGAGUCGCAUCGCUAAGCACAGGUAGGUCGCGCUCCAUCGC [EAB NP+V+V2 #10]  85 nM
15. UGUAUGGACUGAAGGAGCGGAAAAUAAAUCUGAGGAUCACCCAGGUAAUAGGCGAAAGCCAUCCAGGUAGGUCGCAGUCCAUACU  101 nM
16. AACGUAUACAGAAGGAGCGUGAUUUGUGUUACUCAUUCAUAUACAUGAGGAUCACCCAUGUCACAGGUAGGUCGCUGUAUUCGUA [JR_ExcArginiB_Sub022]  128 nM
17. GACAUGAGGAUAGAUACCAGCGACAUGAGGAUCACAUGAGGAUCACCCAUGUGUAGUAUACGCCCUUGGCAGCUAACAUGAGGAU [Same State Theophylline B 3]  129 nM
18. ACGAUAGGACUUGAGGAUCACCCAAGUGAUACCAGCCUGGAAACAGGCCCUUGGCAGCACUAAUACUCCAAUAACCUAUCGAAUA [TheoAX 14 #MicroSwitchBubble #AlternativeMS2]  228 nM
19. GUUAUGAUAAGAAGGAGCGUCGAAAAUGGGUAAACAUGAGGAUCACCCAUGUAAAGGGAACGACAGGUAGGUCGCUUAUUAUAAC [AstromonsSSArgB#20]  270 nM

same assay, conditions: Eterna round: R107; input ligand: theophylline 2 mM

In order of falling “apparent KD of MS2 coat protein” value:
1. CCUCAAUAGACGGCCGCCACUGAAACAUGCGGAUACAUGAGGAUCACCCAUGUGGGUGUGUUACGCAGGACCGGGUCAAGACCCG [#12 Same State - Tryptophan B]  583 nM
2. UUCGUUUGCGGAAGGAGCGACGGACAUCGGUGAACAACGCACAUGAGGAUCACCCAUGUACGUCAGGUAGGUCGCCGCUAAGAGU [XArg-B3]  375 nM
3. GUCAGUGACUGAAGGAGCGACAUGAGGAUCACCCAUGUCUCCCGUUAUGGGAGUUCCUUAGGUCAGGUAGGUCGCAGUCACUGAC [#1 Exclusion - Arginine B Attempt #29 (Inspired by Omei)]  188 nM
4. AACGUAUACAGAAGGAGCGUGAUUUGUGUUACUCAUUCAUAUACAUGAGGAUCACCCAUGUCACAGGUAGGUCGCUGUAUUCGUA [JR_ExcArginiB_Sub022]  87.1 nM
5. AUCCACAGCCGAAGGAGCGCAGUAGGAUGACAUGAGGAUCACCCAUGUGUGUGAUGUGGAUUGCAGGUAGGUCGCGGAGUGGGUU [Exclusion - Arginine B (Freestyle 8)]  73.6 nM
6. AUCUUUGGCGAUCUGGGAAAACCAGAUCGACGAGGACCGGUACGGCCGCCACUCGUGUAUAAUAUACAUGAGGAUCACCCAUGUA [#18 Tryptophan A Same State]  64.7 nM
7. AAAAUCCUACCUGAGGAUCACCCAGGUGAAGGAGCGCCCGAAAGGGCAGGUAGGUCGCACCUGAGGAUCACCCUGGUAAACCUAA [ArgEX 22 #DoubleMS2 #OpenEnded]  56.8 nM
8. UGUAUGGACUGAAGGAGCGCCUCAAAAUAACUUGAGGAACACCCAAGUAAGGCGAAAGCCGGGCAGGUAGGUCGCAGUCCAUACU [ArgBX 3]  46.1 nM
9. AGCAACAAGUCGGCCGCCACUCUUUUAACAUGAGGAUCACCCAUGUUUAUAUCAUGGUUUUAAUAGAGGACCGGGACAGUUGCAU [JR_ExcTryptoB_Sub005]  43.2 nM
10. ACAUGAGGAUCACCCAUGUAGCGUAGGGAAGGAGCGGAAUAAAGUCCAGGUAGGUCGCCCAUAUGAUGAUCUCACUUAUUAUCGA [#12 Same State - Arginine A]  42.2 nM
11. CUAUAUAUAUCGGCCGCCACUUACUCAUGAGGUAACAACAUGAGGAUCACCCAUGUUUGAGGAUCAAGGACCGGGAUAUAUAUAG [AstrosSSTryB#15]  32.6 nM
12. UGUGUCGUCUGAAGGAGCGGCUCUUGAUCCUCGUGGGACAUGAGGAUCACCCAUGUCUCGAGCCAGGUAGGUCGCAGGCGGCACA [#27 Exclusion - Arginine B]  23.8 nM
13. UCUAGUGCGGGAAGGAGCGCCAUACAUGAGGAUCACCCAUGUUGAGCAUGCUCGUGUACUAGGCAGGUAGGUCGCCCGCUCUACG [Radionle]  23.5 nM
14. AAGUAAACAUGAGCAAAGCUCAUGUGCGAAGGAGCGGCGGAAACGCCAGGUAGGUCGCGCACAUGAGCAUCAGCCAUGUGUAUCA [Omei Arginine B SS A v2]  22.1 nM
15. AGUAGUUGACAAAAGUCAGCUACAAUUGAAGGAGCGGGAUCCUUCCCAGGUAGGUCGCAAUAACAUGAGGAUCACCCAUGUCAAA [ArgAS 4 #BothOrNeither #OpenEnded]  20.4 nM
16. AAAUAAAUACAUGAGGAUCACCCAUGUGAAGGAGCGCGCGUUAGCGCAGGUAGGUCGCACAUGAAUAACUCCGCGCGAAAGCGCA [MAT - Exclusion Arginine A - Mod of Eli - D11]  19.6 nM
17. ACAUGAGGAUCACCCAUGUACUGGAUCUAACGAGGACCGGUACGGCCGCCACUCGAAGAUAGGACUAUGGAAACAUAGCUUAUCA [Design 1]  18.4 nM
18. UUCAAAGGGAACGGUGCUGGUAGCAGAGAUACCAGAGUAAUGAUACUCCCUUGGCAGCUCAGUACAUGAGGAUCACCCAUGUAAU [Exclusion Theophylline A GF24]  15.9 nM
19. AGUCUUGAACGAAGGAGCGACGUACAUGAGGAUCACCCAUGUGGAGCGAAAGCUCCGUAACGUCAGGUAGGUCGCGUUCGAGACA [Omei Arginine B SS A v3]  13.1 nM
20. UGUAUGGACUGAAGGAGCGACUCAAAAUAACAUGAGGAUCACCCAUGUAAGGCGAAAGCCGGUCAGGUAGGUCGCAGUCCAUACU [ArgBX 3]  10.6 nM
